In PMC8809517, “Cofactor-independent RNA editing by a synthetic S-type PPR protein”:
Where a chain is given by its changes, count along the chain named.

T1: GFP-9S library array, motif 4 ND N98W;D124S (synthetic construct, N98W;D124S)
T1 chain: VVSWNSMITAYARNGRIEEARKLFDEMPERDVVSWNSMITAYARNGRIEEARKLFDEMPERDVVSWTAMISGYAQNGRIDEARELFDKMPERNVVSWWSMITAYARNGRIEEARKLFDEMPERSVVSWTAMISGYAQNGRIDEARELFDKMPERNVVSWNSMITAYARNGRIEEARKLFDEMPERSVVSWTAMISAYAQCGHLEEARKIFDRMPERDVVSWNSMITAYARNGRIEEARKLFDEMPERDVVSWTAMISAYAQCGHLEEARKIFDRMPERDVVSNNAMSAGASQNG

T2: GFP-9S library array, motif 4 ND N98A;D124I (synthetic construct, N98A;D124I)
T2 chain: T1 chain with W98A, S124I

T3: GFP-9S library array, motif 4 ND N98C;D124Q (synthetic construct, N98C;D124Q)
T3 chain: T1 chain with W98C, S124Q

T4: GFP-9S library array, motif 4 ND N98F;D124W (synthetic construct, N98F;D124W)
T4 chain: T1 chain with W98F, S124W

T5: GFP-9S library array, motif 4 ND N98D;D124E (synthetic construct, N98D;D124E)
T5 chain: T1 chain with W98D, S124E


What was measured:
Assay in all cases: high-throughput RNA pulldown from lysate on Ni-NTA beads; HRP: 50 mM Tris pH 8, 150 mM NaCl, 1 mM beta-mercaptoethanol, 50 ug/ml BSA, 3 ug/ml yeast RNA, 0.5% heparin; ITC and FP: Tris pH 8, 200 mM KCl, 5% glycerol; MST: 50 mM Tris pH 8, 200 mM NaCl, 1 mM DTT, BSA, heparin, 0.05% Tween 20
Conditions in all cases: tags: N-terminal His-eGFP
[1] = target: T1, GFP-9S library array, motif 4 ND …
[2] = target: T2, GFP-9S library array, motif 4 ND …
[3] = target: T3, GFP-9S library array, motif 4 ND …
[4] = target: T4, GFP-9S library array, motif 4 ND …
[5] = target: T5, GFP-9S library array, motif 4 ND …

Binder	Kd ([1]; label: 5' IRDye 800CW)	Kd ([2]; label: 5' IRDye 800CW)	Kd ([3]; label: 5' IRDye 800CW)	Kd ([4]; label: 5' IRDye 800CW)	Kd ([5]; label: 5' IRDye 800CW)	Kd ([1]; label: 5' Cy5)	Kd ([2]; label: 5' Cy5)	Kd ([3]; label: 5' Cy5)	Kd ([4]; label: 5' Cy5)	Kd ([5]; label: 5' Cy5)
AUUAAACGUGA (ssRNA) [IR-rpoA-A]	247 nM	203 nM	177 nM	236 nM	343 nM					
AUUAGACGUGA (ssRNA) [Cy5-rpoA-G]						79.8 nM	107 nM	150 nM	72.2 nM	95.2 nM
AUUAUACGUGA (ssRNA) [IR-rpoA-U]	263 nM	249 nM	143 nM	364 nM	283 nM					
AUUACACGUGA (ssRNA) [Cy5-rpoA]						89.2 nM	103 nM	127 nM	99.3 nM	124 nM
